In patent publication US20220202905A1, “COMPOSITION FOR PREVENTING OR TREATING NEUROTROPHIC KERATITIS WHICH CONTAINS PACAP PEPTIDE OR STABILIZED PACAP PEPTIDE” (SENJU PHARMACEUTICAL CO., LTD., priority 2019, published 2022):
Square brackets hold non-standard residues; d marks the D form. Peptide text beside a SMILES is read from it. Ala(1H-tetrazol-5-yl) = N[C@@H](Cc1nnn[nH]1)C(=O)O

T1: PAC1 receptor (UniProt P41586 21-468, limits assumed)
T1 sequence (looked up): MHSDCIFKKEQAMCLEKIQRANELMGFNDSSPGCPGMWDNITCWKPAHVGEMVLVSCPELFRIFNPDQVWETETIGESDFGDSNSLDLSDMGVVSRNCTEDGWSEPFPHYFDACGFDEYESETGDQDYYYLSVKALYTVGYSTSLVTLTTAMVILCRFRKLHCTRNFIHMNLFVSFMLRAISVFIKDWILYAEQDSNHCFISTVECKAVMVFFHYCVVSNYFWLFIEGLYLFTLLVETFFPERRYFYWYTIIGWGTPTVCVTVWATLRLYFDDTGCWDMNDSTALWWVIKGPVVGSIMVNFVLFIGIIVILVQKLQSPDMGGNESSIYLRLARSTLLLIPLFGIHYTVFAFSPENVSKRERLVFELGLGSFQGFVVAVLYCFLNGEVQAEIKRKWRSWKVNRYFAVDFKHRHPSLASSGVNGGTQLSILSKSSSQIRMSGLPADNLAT

T2: VPAC1 receptor (UniProt P32241 31-457, limits assumed)
T2 sequence (looked up): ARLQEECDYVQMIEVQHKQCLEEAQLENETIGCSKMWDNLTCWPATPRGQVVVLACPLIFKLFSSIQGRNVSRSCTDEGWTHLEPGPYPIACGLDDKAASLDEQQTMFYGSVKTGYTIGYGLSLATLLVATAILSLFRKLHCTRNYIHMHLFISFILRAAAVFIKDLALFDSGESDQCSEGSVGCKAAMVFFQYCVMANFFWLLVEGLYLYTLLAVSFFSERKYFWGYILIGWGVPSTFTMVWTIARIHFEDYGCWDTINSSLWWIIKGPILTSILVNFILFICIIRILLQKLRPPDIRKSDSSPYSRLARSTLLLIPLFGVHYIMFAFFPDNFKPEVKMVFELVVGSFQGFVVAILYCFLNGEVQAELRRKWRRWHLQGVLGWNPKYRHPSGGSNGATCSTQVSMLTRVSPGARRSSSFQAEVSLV


Tests used:
[1] = Peptide stability test, Tris buffer (pH 7.0), 60° C. storage, HPLC remaining rate; type: physicochemical; details: Table 7-2; 100 μM in Tris buffer pH 7.0
Experimental: Peptides 1, 2 and 6 to 9 synthesized in Example 2 were weighed and dissolved in Tris buffer (pH 7.0) to prepare 1.0 mM peptide solutions. Each solution was filtered with a Chromatdisk (product of Merck Millipore, Millex-GV, 0.22 μm). The filtrate was diluted to 100 μM with Tris buffer (pH 7.0) and dispensed into a tube (Protein LoBind Tube by Eppendorf Co.). The prepared peptide solutions were incubated for 1 week or 2 weeks in a 60° C. thermostatic bath to obtain stored samples. A simultaneously prepared sample among the peptide solutions that was not stored was used as a standard sample (initial sample). The standard sample and the stored samples were stored at −30° C. until sample analysis. Each stored sample was measured under the following HPLC analysis conditions 2, and the remaining rate after correction for water for each peptide among the stored samples was calculated in the same manner as Example 3. Guard column: XSelect CSH C18 by Waters Co., 5 μm, 4.6×20 mm Guard Cartridge Detection wavelength: 220 nm Mobile phase A: 0.1% formic acid aqueous solution Mobile phase B: 0.1% acetonitrile formate solution Measuring time: 20 minutes Measuring sample injection rate: 50 μL Flow rate: 1.0 mL/min Column temperature: 40° C. Sample cooler: 25° C. Mobile phase delivery: The mixing ratio of mobile phase A and mobile phase B was varied as shown in Table 5 for linear concentration gradient control. Peptides 12 to 25, 27 and 28 synthesized in Example 2 were weighed and dissolved in Tris buffer (pH 7.0) to prepare 1.0 mM peptide solutions. Each solution was filtered with a Chromatdisk (product of Merck Millipore, Millex-GV, 0.22 μm). The filtrate was diluted to 100 μM with Tris buffer (pH 7.0) and dispensed into a tube (Protein LoBind Tube by Eppendorf Co.). The prepared peptide solutions were incubated for one week or 2 weeks in a 60° C. thermostatic bath to obtain stored samples. A simultaneously prepared sample among the peptide solutions that was not stored was used as a standard sample (initial sample). The standard sample and the stored samples were stored at −30° C. until sample analysis. The remaining rate after correction for water for each peptide among the stored samples was calculated in the same manner as Example 4, and the results are shown in Table 7. Peptides 29 to 34 synthesized in Example 2 were weighed and dissolved in Tris buffer (pH 7.0) to prepare 1.0 mM peptide solutions. Each solution was filtered with a Chromatdisk (product of Merck Millipore, Millex-GV, 0.22 μm). The filtrate was diluted to 100 μM with Tris buffer (pH 7.0) and dispensed into a tube (Protein LoBind Tube by Eppendorf Co.). The prepared peptide solutions were incubated for 2 weeks in a 60° C. thermostatic bath to obtain stored samples. A simultaneously prepared sample among the peptide solutions that was not stored was used as a standard sample (initial sample). The standard sample and the stored samples were stored at −30° C. until sample analysis. The remaining rate after correction for water for each peptide among the stored samples was calculated in the same manner as Example 4, and the results are shown in Table 7-2. Peptide 26 synthesized in Example 2 was weighed and dissolved in Tris buffer (pH 7.0) to prepare a 1.0 mM peptide solution. The solution was filtered with a Chromatdisk (product of Merck Millipore, Millex-GV, 0.22 μm). The filtrate was diluted to 100 μM with Tris buffer (pH 7.0) and dispensed into a tube (Protein LoBind Tube by Eppendorf Co.). The prepared peptide solution was incubated for one week or 2 weeks in a 60° C. thermostatic bath to obtain stored samples. A simultaneously prepared sample among the peptide solutions that was not stored was used as a standard sample (initial sample). The standard sample and the stored sample were stored at −30° C. until sample analysis. […]

[2] = biological target: T1, PAC1 receptor; test: cell-based or functional assay
[3] = biological target: T2, VPAC1 receptor; test: cell-based or functional assay

remaining rate after correction for water, 60° C., 2 weeks preservation [1] [%] | EC50 (PAC1R), cAMP inducing effect [2] [nM] | EC50 (VPAC1R), cAMP inducing effect [3] [nM] | Molecule
 | 0.038 | 0.19 | HSXGIFTXSYSRYRKQXAVKKYLAAVL (N-terminal mesyl (Ms-); Tz (aspartic acid with carboxyl group replaced by tetrazole) at positions 3 and 8; norleucine at position 17; C-terminal amide (NH2)) [Peptide 11]
 | 0.076 | 0.101 | HSXGIFTXSYSRYRKQMAVKKYLAAVL (N-terminal acetyl (Ac-); Tz (aspartic acid with carboxyl group replaced by tetrazole) at positions 3 and 8; C-terminal amide (NH2)) [Peptide 10]
 | 0.023 | 0.087 | HSXGIFTXSYSRYRKQLAVKKYLAAVL (N-terminal mesyl (Ms-); Tz (aspartic acid with carboxyl group replaced by tetrazole) at positions 3 and 8; C-terminal amide (NH2)) [Peptide 12]
 | 0.08 | 0.04 | HSXGIFTXSYSRYRKQLAVKKYLAAVA (N-terminal acetyl (Ac-); Tz (aspartic acid with carboxyl group replaced by tetrazole) at positions 3 and 8; C-terminal amide (NH2)) [Peptide 20]
 | 0.033 | 0.064 | HSXGIFTXSYSRYRKQMAVKKYLAAVL (Tz (aspartic acid with carboxyl group replaced by tetrazole) at positions 3 and 8; C-terminal amide (NH2)) [Peptide 5]
 | 0.061 | 0.033 | HSXGIFTXSYSRYRKQAAVKKYLAAVL (N-terminal acetyl (Ac-); Tz (aspartic acid with carboxyl group replaced by tetrazole) at positions 3 and 8; C-terminal amide (NH2)) [Peptide 18]
 | 0.33 | 0.065 | HSXGIFTXSYARYRKQLAVKKYLAAVL (N-terminal acetyl (Ac-); Tz (aspartic acid with carboxyl group replaced by tetrazole) at positions 3 and 8; C-terminal amide (NH2)) [Peptide 16]
 | 0.074 | 0.099 | HAXGIFTXSYSRYRKQLAVKKYLAAVL (N-terminal acetyl (Ac-); Tz (aspartic acid with carboxyl group replaced by tetrazole) at positions 3 and 8; C-terminal amide (NH2)) [Peptide 14]
 | 0.04 | 0.053 | HSDGIFTXSYSRYRKQMAVKKYLAAVL (Tz (aspartic acid with carboxyl group replaced by tetrazole) at position 8; C-terminal amide (NH2)) [Peptide 4]

More lines, now with the values behind:

Molecule | remaining rate after correction for water, 60° C., 2 weeks preservation [1] [%] | EC50 (PAC1R), cAMP inducing effect [2] [nM] | EC50 (VPAC1R), cAMP inducing effect [3] [nM]
CC[C@H](C)[C@H](NC(=O)[C@H](C)NC(=O)[C@H](Cc1nnn[nH]1)NC(=O)[C@H](CO)NC(=O)[C@H](Cc1c[nH]cn1)NC(C)=O)C(=O)N[C@@H](Cc1ccccc1)C(=O)N[C@H](C(=O)N[C@@H](Cc1nnn[nH]1)C(=O)N[C@@H](CO)C(=O)N[C@@H](Cc1ccc(O)cc1)C(=O)N[C@@H](CO)C(=O)N[C@@H](CCCNC(=N)N)C(=O)N[C@@H](Cc1ccc(O)cc1)C(=O)N[C@@H](CCCNC(=N)N)C(=O)N[C@@H](CCCCN)C(=O)N[C@@H](CCC(N)=O)C(=O)N[C@@H](C)C(=O)N[C@@H](C)C(=O)N[C@H](C(=O)N[C@@H](CCCCN)C(=O)N[C@@H](CCCCN)C(=O)N[C@@H](Cc1ccc(O)cc1)C(=O)N[C@@H](CC(C)C)C(=O)N[C@@H](C)C(=O)N[C@@H](C)C(=O)N[C@H](C(=O)N[C@@H](CC(C)C)C(N)=O)C(C)C)C(C)C)[C@@H](C)O [Peptide 32] (Ac-HS[Ala(1H-tetrazol-5-yl)]AIFT[Ala(1H-tetrazol-5-yl)]SYSRYRKQAAVKKYLAAVL-NH2) | 88.7 |  | 
CC[C@H](C)[C@H](NC(=O)[C@H](C)NC(=O)[C@H](Cc1nnn[nH]1)NC(=O)[C@H](C)NC(=O)[C@H](Cc1c[nH]cn1)NC(C)=O)C(=O)N[C@@H](Cc1ccccc1)C(=O)N[C@H](C(=O)N[C@@H](Cc1nnn[nH]1)C(=O)N[C@@H](CO)C(=O)N[C@@H](Cc1ccc(O)cc1)C(=O)N[C@@H](CO)C(=O)N[C@@H](CCCNC(=N)N)C(=O)N[C@@H](Cc1ccc(O)cc1)C(=O)N[C@@H](CCCNC(=N)N)C(=O)N[C@@H](CCCCN)C(=O)N[C@@H](CCC(N)=O)C(=O)N[C@@H](C)C(=O)N[C@@H](C)C(=O)N[C@H](C(=O)N[C@@H](CCCCN)C(=O)N[C@@H](CCCCN)C(=O)N[C@@H](Cc1ccc(O)cc1)C(=O)N[C@@H](CC(C)C)C(=O)N[C@@H](C)C(=O)N[C@@H](C)C(=O)N[C@H](C(=O)N[C@@H](CC(C)C)C(N)=O)C(C)C)C(C)C)[C@@H](C)O [Peptide 33] (Ac-HA[Ala(1H-tetrazol-5-yl)]AIFT[Ala(1H-tetrazol-5-yl)]SYSRYRKQAAVKKYLAAVL-NH2) | 85.3 |  | 
CC[C@H](C)[C@H](NC(=O)[C@H](C)NC(=O)[C@H](Cc1nnn[nH]1)NC(=O)[C@H](CO)NC(=O)[C@H](Cc1c[nH]cn1)NC(C)=O)C(=O)N[C@@H](Cc1ccccc1)C(=O)N[C@H](C(=O)N[C@@H](Cc1nnn[nH]1)C(=O)N[C@@H](CO)C(=O)N[C@@H](Cc1ccc(O)cc1)C(=O)N[C@@H](CO)C(=O)N[C@@H](CCCNC(=N)N)C(=O)N[C@@H](Cc1ccc(O)cc1)C(=O)N[C@@H](CCCNC(=N)N)C(=O)N[C@@H](CCCCN)C(=O)N[C@@H](C)C(=O)N[C@@H](C)C(=O)N[C@@H](C)C(=O)N[C@H](C(=O)N[C@@H](CCCCN)C(=O)N[C@@H](CCCCN)C(=O)N[C@@H](Cc1ccc(O)cc1)C(=O)N[C@@H](CC(C)C)C(=O)N[C@@H](C)C(=O)N[C@@H](C)C(=O)N[C@H](C(=O)N[C@@H](CC(C)C)C(N)=O)C(C)C)C(C)C)[C@@H](C)O [Peptide 34] (Ac-HS[Ala(1H-tetrazol-5-yl)]AIFT[Ala(1H-tetrazol-5-yl)]SYSRYRKAAAVKKYLAAVL-NH2) | 96.9 |  | 
HSXGIFTXSYSRYRKQLAAKKYLAAVL (N-terminal acetyl (Ac-); Tz (aspartic acid with carboxyl group replaced by tetrazole) at positions 3 and 8; C-terminal amide (NH2)) [Peptide 19] |  | 0.094 | 0.044
HSXGIFTXSYSRYRKXLAVKKYLAAVL (N-terminal acetyl (Ac-); Tz (aspartic acid with carboxyl group replaced by tetrazole) at positions 3 and 8; egTz (glutamine with amide replaced by tetrazole) at position 16; C-terminal amide (NH2)) [Peptide 13] |  | 0.132 | 0.072
HSXGIFTXSYSRYRKALAVKKYLAAVL (N-terminal acetyl (Ac-); Tz (aspartic acid with carboxyl group replaced by tetrazole) at positions 3 and 8; C-terminal amide (NH2)) [Peptide 17] |  | 0.099 | 0.132
HSXGIFTXAYSRYRKQLAVKKYLAAVL (N-terminal acetyl (Ac-); Tz (aspartic acid with carboxyl group replaced by tetrazole) at positions 3 and 8; C-terminal amide (NH2)) [Peptide 15] |  | 0.061 | 0.149
HSXGIFTDSYSRYRKQMAVKKYLAAVL (Tz (aspartic acid with carboxyl group replaced by tetrazole) at position 3; C-terminal amide (NH2)) [Peptide 3] |  |  | 0.101
